# Source: the nanobody polyreactivity screen of Harvey et al. (2022)
# Experiment: yeast display, Sf9 membrane polyspecificity reagent, FACS + sequencing; frameworks hold sequencing errors
# How it was run: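 Galactose induction of a Saccharomyces cerevisiae BJ5465 synthetic nanobody display library ran 36–48 hours. The cells were then stained for 1 hour at 4 °C with 10% biotinylated, detergent-solubilized Sf9 membrane reagent, pulled down on streptavidin microbeads and FACS-sorted into low and high (top ~1%) gates on expression and reagent-binding fluorescence. Labels for polyreactivity follow the gate of origin.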
row,Sequence,polyreactivity (PSR sort gate)
1,QVQLVESGGRLVQAGGSLRLSCAPSGFIFGYYAMGWYRQAPGKERELVAAISPSGGRTYYADSVKGRFTISRDNAKITVFLQMNSLKPEDTAVYYCAAEYAYSLDPEEDYWGQGTQVTVSS,high polyreactivity
2,QVQLVESGGRLVQAGGSLRLSCDPSGRTFWYYAMGWYRQAPGKERELVASISLSGSRTNYADSVKGRFTISRDNAKNTVYLQMNSLKPEDTAVYYCAADNFRQFGEYDYWGQGTQVTLSS,low polyreactivity
3,QVQLVESGGRLVQAGGSLRLSCSASGFTLIHYAMGWYRQAHGKERELVAGITTSGGSTYYADSVKGRFTISRDNAKNTVYLQMNSLKPEDTAFYYCAAGSTTGQTGKVGYWGQGTQVTVSS,high polyreactivity
4,QVQLVESGGRLVQAGGSLRLSCSASGSTFRRNAMGWYRQAPGKERELVAAISWSSTRTYYADSVKGRFTISRDNAKNTVYLQMNSLKPEDTAVYYCAADSYGGGFQLYSYVSGLYYWGEGTQVTVSS,high polyreactivity
5,QVQLVESGGRLVQAGGSLRLSWAASGRILWSNRMGWYRQAPGKERELVAAITYSGDTTYYADSVKGRFTISRDNEKNTVYLQMNSLKPDDTAVYYCAVEDAGQGGDYWGQGSQVTVSS,low polyreactivity
6,QVQLVESGGRLVQAGGSLSLSCAASGFIFWSYAMGWYRPAPGKERELVAAISARGGSTYYADSVKGRFTISRDNAKNTVYLQMTSLKPEDTAVYYCATYPTYEYDYWGQGTQVTLSS,high polyreactivity
7,QVQLVESGGRLVQAGGSLSLSCAASGRTFGGYNMGWYRQAPGKERELVAAINWSGTTYYADSVKGRFTISRDNAKNTVYLQMNSLKPVDTAVYYCAASLVSYYGLARDSVDYWGQGTQVTVSS,low polyreactivity
8,QVQLVESGGRLVQAGRSLRLSCAASGFTFYDYAMVWYRQEPGKERELVARINGGGGTNYADSVKGRFTNSRDNAKNTVYLQMNSLKPEDTAVYYCAAEFGSRPPYDYWGQGTQVTVSS,low polyreactivity
9,QVQLVESGGRLVQAGRSLRLSCAASGSTFYLYAMGWYRQAPGKERELVASISIGGSTNYADSVKGRFTISRDNAKNTVYLQMNSLKPEDTAVYYCNADYYYVRTVRRLGYWGQGSQVTVSS,low polyreactivity
10,QVQLVESGGRLVQARGSLRLSCAASGRIFAYYTLGWYRQAPGKERELVAVISGSGGRTYYADSVKGRFTISRDNAKNTVYLQMNSRKPDDTAVYYCAAYYQGIKYDYWGQGTQVTVSS,high polyreactivity
11,QVQLVESGGRLVQAVGSLRLRCAPSGNTFPVYAMGWYRQASGKERELVATITSGGSTNYADSVKGRFTISRDNAKNTVYLQMNSLKPEDTAVYYCARRAVYSKRRYDYWGQGTQVTVSS,low polyreactivity
12,QVQLVESGGRLVQEGGSLRLSCAASGRTFSKYAMGWYRQAPGKERELVAAITWRGGRTYYADSVNGRFTISRDNAKNTVYLQMNSLKPEDTAVYYCAADPSIYRIYQYTNRYDYWGQGTQVTVSS,high polyreactivity
13,QVQLVESGGRLVQEGGSLRLSCAASGRTLYDYAMGWYRQAPGKERELVAGITWRGGSTSYAASVKGRFTISRDNAKNTVYLEMNSLKPEDTAVYDCATDGDERMDYWGQGTQVTVAS,low polyreactivity
14,QVQLVESGGRSVQAGGSRRLSCAASGFSFHYYAMGWYRAAPATERELVAAITSRGTATYYADSVKGRFTISRDTAKITVDLLMNCLKPEDTAVYYCAKASTERMGSWGQGTQVTVSS,high polyreactivity
15,QVQLVESGGRVDQAGGSLRLRCAASGRTFPVYAMGWYRQAPGKERELVAAITRCDDSTYYADSVKGRFTISRDNAKNTVYFEMNSLKPEDTAVYYCARSSRESYEYDYWGQGTQVTVSS,low polyreactivity
16,QVQLVESGGSLVQAGGSLLLSSAASLRTFGVNDIGWYRKAPGKERNFVAAISYSDTSTYYADSVKVSFTISRDNAKNTVYLQMNSLKPEDTAVYYCAVETYLQYDNGYGHDYWGQGTQVTVSS,low polyreactivity
17,QVQLVESGGVFVQAGGTLRLSCAASGITLNGYVMGWYRQAPGKEREFVAVITTRGGSTYYADSVKGRFTISRDNAKNTVYLQMNSLNPEDTAVYYCAARYVREYNYWGQGTQVTVSS,high polyreactivity
18,QVQLVESGGVLDPAGGSLRLSCAASGSTFISNAMRWYRQAPGKERELVATITYSDATTYYADSVKGRFTISRDNAKNTVYLQMNSLKPEDTAVYYCNTRFFRPLWGYNYWGQGTQVTVSS,low polyreactivity
19,QVQLVESGGVLLQAGGSLRLSCAASGRIFTLYDRGWYRQAPGKEREMDAAISNSAGSTYYADSVKGRFTISRDNAKNTVYLQMNSLKPEDTAGYYCARSYSYWGYRSVYYWGQGTQVTVSS,high polyreactivity
20,QVQLVESGGVLVEAGGSLRLSCASSGRIFTYYSMGWYRQAPGKERELVAAISRSGRTYYADSVKGRFTISRDNAKNTVYLQMNSLKPEDSAVYFCAAEYYYSWFEYWGQGTQVTVSS,high polyreactivity
21,QVQLVESGGVLVQAGASLRLSCAASVFTFRRYAMGWYRQAPGKERELVAAITRDDSTNYADSVKGRFTISRDNAKNTVYLQMNSLKPEDTAVYYCAARLWYPYYYWGQGTQVTVSS,high polyreactivity
22,QVQLVESGGVLVQAGGILRLSCAESGSIFSYYAMVWYRQAPWKERELVASISWNGTSTYYADSVKGRFTISRDNSKNTVYLQMNSLKPEDTAVYYCNVRFNYRGTYDYWGQGTQVTVSS,low polyreactivity

row,Sequence,polyreactivity (PSR sort gate)
1,QVQLVESGGVLVQAGGSLRISCAASGSTFYSYDMGWYRQAPGKERELVAAISSSSGSTYYADSVKARFTISRDNAKNTVYLQMNSLKPEDTAVYYCKRGRRYSHKYDYWGQVTQVTVSS,high polyreactivity
2,QVQLVESGGVLVQAGGSLRLSCAAAGRIFIWNAMGWYRQAPGKERELDAAISSGGTYYADSVKGRFTISRDNAKNTVYLQMNSLKPEDTAVYYCAADWEVYVSEFVYWGQGTQVTVSS,low polyreactivity
3,QVQLVESGGVLVQAGGSLRLSCAASGFIFKYYAMGWYRQATGKERDLVAAISSSGGRKYYADSVKGRFTISRDNAKNTVYLHMNRLKPEDTAVYYCNKATFVTYYFLGYDYWGQGTQVTVSS,high polyreactivity
4,QVQLVESGGVLVQAGGSLRLSCAASGFTFAYYAMGWYRQAPGKVRELVASITRSGGSTYYADSVKGRFTLSRDNAKNTVYLQMNSLKPEDTAVYYCAARYGLVRDVIPYDYWGQGTQVTVSS,high polyreactivity
5,QVQLVESGGVLVQAGGSLRLSCAASGFTFYRYDMGWYRQAPVKERELVAAITWSGGSTYYADSLKGRFTISRDNAKNTVYLQMNSLKPEDTAVYDCAAENYDGGFEYWGLGTQVTVSS,low polyreactivity
6,QVQLVESGGVLVQAGGSLRLSCAASGFTLKWNAMGWYRQAPGKERELVARISRSGGSTNYADSVKGRFTISRDNAKNTVYLQMISLKPEDTAVFYCNTPSSREMDYWGQGTQVTVSS,low polyreactivity
7,QVQLVESGGVLVQAGGSLRLSCAASGITFEYYAMGWYRQAPGKERELVAAISWSGSSTYYADSVKGRFTISRDNAKNTVYLQMNSLKPEDTAVYYCNADSAWWASDDQYDYWGQGTQVTVSS,low polyreactivity
8,QVQLVESGGVLVQAGGSLRLSCAASGITLPVYGMGWYRQAPGKERELVAVIDIVGITNYADSVKGRFTISRDNAKNTVYLQMNSLNPEDTAVYYCAKRYVYIADGGEYYYWGQGTQVTVSS,low polyreactivity
9,QVQLVESGGVLVQAGGSLRLSCAASGLIFKFYAMGWYRQAPGKERELVARISSSGGSTYYADSVKGRFTTSRDNAKNTVYLQMNSLKPEDTAVSYCAAGAYYVDRYARSSIFSYYYWGQATQVTVSS,high polyreactivity
10,QVQLVESGGVLVQAGGSLRLSCAASGLTIQTNAMGWYREAPVKERELVAAISRRGSSTYYADSVKGRFTISRDNAKNTVYLQMISLKPEDTAVYYCATGGVLYPYWRGKRYGYWGQGTQVTVSS,high polyreactivity
11,QVQLVESGGVLVQAGGSLRLSCAASGRIFRYYAMGWYRQAPGKERELVAAIRYRSGGTYYADSVKGRFTISRDNAKNTVYLQMNSLKTEDTAVYYCNADKRLRGHGYDYWGEGTQVTVSS,high polyreactivity
12,QVQLVESGGVLVQAGGSLRLSCAASGRIFSYYAMGWYRQAPGKERELVARITSRGASTYYADSVKGRFTISRDNAKNTVYLQMNSLKPEDTAVYYCAARKDSTRRFDYWGQGTQVTVLS,high polyreactivity
13,QVQLVESGGVLVQAGGSLRLSCAASGRTFGHYAMGWYRQAPGKERELVAAITRDDGTNYADSVKGRFTISRDNAKNTVYLQMNSLKPEDTAVYYCDRDVLEKYRQSWGYVPLQGYDYWGQGTQVTVSS,low polyreactivity
14,QVQLVESGGVLVQAGGSLRLSCAASGRTFNLIAMGWYRQAPGKERELVAAISRSGGSTYYADSEKGRFTISRDNAKNTVYLQMNSLNPEETAVYYCNASALGRPYYRGSYFVFQGYEYWGLGTQVTVSS,low polyreactivity
15,QVQLVESGGVLVQAGGSLRLSCAASGSIFCVNAMGWSRQAPGKERELVAAISWRGASTYYADSVKGRFTISRDNAMNTVYLQMNSLKPEDTAVYYCAAKCTGGDPYYAFDYWGQGTHVTVSS,low polyreactivity
16,QVQLVESGGVLVQAGGSLRLSCAASGSIFEPYVMGWYRQPPGKERELVAAIRQSGGSTYYADSVKGRFTISRDNAKNTVYLQMNSLKPEDTAVYYCNAEQNPSGLYDYRGVEGEMGYWRQGTQVTVSS,low polyreactivity
17,QVQLVESGGVLVQAGGSLRLSCAASGSIFGNYAMGWYRQAPGKETELVAAISYRGGSTYYADSVKGRFTISRDNAKNTVYLQMNSLKPEDTAVYYCNAGGRRRIFAHSSTGDYWGQGTQVTVSS,high polyreactivity
18,QVQLVESGGVLVQAGGSLRLSCAASGSIFSSNAMGWYRQAPGKERELVAAISSSGGSTYYADSVKGRFTISRDNAKNTVYLQMNSLKPEDTAVYYCATGKQVYGHYYWGQGTQVTVSS,low polyreactivity
19,QVQLVESGGVLVQAGGSLRLSCAASGSLFILYALGWYRQEPGKEREFVASISRSGSTYYADSVKGRFTISRDNAKNSVYLQMNSLKPEDTAVYYCAADYRQFYRYVDYEYWGQGTQVTVSS,low polyreactivity
20,QVQLVESGGVLVQAGGSLRLSCAASGSTFYTYAMGWYRQAPGKERELVAAITRRGGRTYYADSVKGRFTISRDIAKNTVYLQMNSLKPEDTSVYYCAAYPWATCYGEWGQGTQVTVSS,high polyreactivity
21,QVQLVESGGVLVQAGGSLRLSCAASGYINGRYVMGWYRTAPGKETELVAAITSSGGSTYYADSVKGRFTISRDNAKNTVYLQINILSPDDTAVYYCAAPTYGRFLRNDYWGPGTQVTVSS,high polyreactivity
